Reference: the Immune Epitope Database (IEDB)

Experiments:
[1] = target: HLA-B*40:02; assay: IEDB peptide-MHC binding, purified MHC/competitive/radioactivity; filed as Kd, often an IC50 or EC50 that approximates it; ≥ and ≤ were set here for values at or beyond the usual limits of such assays
[2] = target: HLA-B*44:03; assay: as above
[3] = target: HLA-B*18:01; assay: as above
[4] = target: HLA-B*40:01; assay: as above
[5] = target: HLA-B*44:02; assay: as above
[6] = target: HLA-B*45:01; assay: as above
[7] = target: HLA-B*51:01; assay: as above; settings: source organism: Dengue virus 1 Brazil/97-11/1997
[8] = target: HLA-B*08:01; assay: IEDB peptide-MHC binding, purified MHC/direct/fluorescence; filed as Kd, often an IC50 or EC50 that approximates it; ≥ and ≤ were set here for values at or beyond the usual limits of such assays
[9] = target: HLA-B*57:01; assay: as above; settings: source organism: Amur virus
[10] = target: HLA-B*58:01; assay: as above
[11] = target: HLA-B*35:01; assay: IEDB peptide-MHC binding, purified MHC/competitive/radioactivity; filed as Kd, often an IC50 or EC50 that approximates it; ≥ and ≤ were set here for values at or beyond the usual limits of such assays; settings: source organism: Dengue virus 1 Brazil/97-11/1997
[12] = target: HLA-B*39:01; assay: IEDB peptide-MHC binding, purified MHC/competitive/fluorescence; filed as Kd, often an IC50 or EC50 that approximates it; ≥ and ≤ were set here for values at or beyond the usual limits of such assays
[13] = target: HLA-A*24:03; assay: IEDB peptide-MHC binding, purified MHC/direct/fluorescence; filed as Kd, often an IC50 or EC50 that approximates it; ≥ and ≤ were set here for values at or beyond the usual limits of such assays; settings: source organism: West Nile virus
[14] = target: HLA-A*26:01; assay: IEDB peptide-MHC binding, purified MHC/competitive/fluorescence; filed as Kd, often an IC50 or EC50 that approximates it; ≥ and ≤ were set here for values at or beyond the usual limits of such assays; settings: source organism: Bacillus anthracis str. A2012
[15] = target: HLA-B*27:05; assay: IEDB peptide-MHC binding, purified MHC/direct/fluorescence; filed as Kd, often an IC50 or EC50 that approximates it; ≥ and ≤ were set here for values at or beyond the usual limits of such assays
[16] = target: HLA-A*03:01; assay: as above
[17] = target: HLA-A*69:01; assay: as above
[18] = target: HLA-A*11:01; assay: as above
[19] = target: HLA-B*15:01; assay: as above; settings: source organism: Rhizobium wenxiniae
[20] = target: HLA-A*01:01; assay: as above
[21] = target: HLA-A*26:01; assay: as above
[22] = target: HLA-A*31:01; assay: as above
[23] = target: HLA-B*07:02; assay: as above
[24] = target: HLA-B*40:01; assay: as above
[25] = target: HLA-A*02:01; assay: as above
[26] = source organism: SARS coronavirus Tor2
[27] = source organism: Lassa virus Josiah
[28] = source organism: Mammarenavirus choriomeningitidis
[29] = source organism: Mammarenavirus machupoense
[30] = source organism: Mammarenavirus guanaritoense
[31] = source organism: Rhizobium wenxiniae
[32] = source organism: Haemophilus influenzae
[33] = source organism: Shewanella violacea
[34] = source organism: Mammarenavirus whitewaterense

Question: Which Kd [1, 26] does the source give for QELGHEDLMA here?
Answer: 2580 nM

Question: And the Kd [2, 26]?
Answer: 2350 nM

Question: What about the Kd [3, 26] of the same sequence?
Answer: ≥ 70500 nM

Question: What about the Kd [4, 26] of the same sequence?
Answer: ≥ 26900 nM

Question: And the Kd [5, 26]?
Answer: 4150 nM

Question: What about the Kd [6, 26] of the same sequence?
Answer: 671 nM

Question: AEAQMSIQL was tested. Which Kd [1, 27] did it give?
Answer: 12.6 nM

Question: And the Kd [2, 27]?
Answer: 106 nM

Question: And the Kd [3, 27]?
Answer: ≥ 23700 nM

Question: What about the Kd [4, 27] of the same sequence?
Answer: 22.9 nM

Question: And the Kd [5, 27]?
Answer: 37.4 nM

Question: What about the Kd [6, 27] of the same sequence?
Answer: 246 nM

Question: With NELTLIDFYL as the sequence, how does the Kd [1, 26] read?
Answer: 126 nM

Question: What about the Kd [2, 26] of the same sequence?
Answer: 51 nM

Question: What about the Kd [3, 26] of the same sequence?
Answer: 604 nM

Question: What about the Kd [4, 26] of the same sequence?
Answer: 231 nM

Question: And the Kd [5, 26]?
Answer: 157 nM

Question: And the Kd [6, 26]?
Answer: 1080 nM

Question: Which Kd [7] does the source give for WPISKMDLGV here?
Answer: 3160 nM

Question: Which results are given for SDAALHNMI?
Answer: Kd [1, 28]: 1930 nM; Kd [2, 28]: ≥ 31700 nM; Kd [3, 28]: ≥ 77500 nM; Kd [4, 28]: ≥ 35800 nM; Kd [5, 28]: 7070 nM; Kd [6, 28]: 2120 nM

Question: How did the Kd ([8]; source organism: Campylobacter jejuni subsp. jejuni 81-176) turn out when YLKPKIWRF was run?
Answer: 8 nM

Question: How did the Kd [7] turn out when MVQADSGCVI was run?
Answer: ≥ 63900 nM

Question: How did the Kd [1, 29] turn out when KEINFLSQT was run?
Answer: 15.1 nM

Question: What about the Kd [2, 29] of the same sequence?
Answer: 17300 nM

Question: What about the Kd [3, 29] of the same sequence?
Answer: ≥ 28300 nM

Question: What about the Kd [4, 29] of the same sequence?
Answer: ≥ 63700 nM

Question: What about the Kd [5, 29] of the same sequence?
Answer: 16100 nM

Question: What about the Kd [6, 29] of the same sequence?
Answer: 643 nM

Question: With VSLTECPTF as the sequence, how does the Kd [9] read?
Answer: 474 nM

Question: What about the Kd ([10]; source organism: Amur virus) of the same sequence?
Answer: 34.8 nM

Question: With DEWSVATFY as the sequence, how does the Kd [1, 26] read?
Answer: ≥ 77300 nM

Question: What about the Kd [2, 26] of the same sequence?
Answer: 10.4 nM

Question: And the Kd [3, 26]?
Answer: 2.82 nM

Question: What about the Kd [4, 26] of the same sequence?
Answer: ≥ 76200 nM

Question: What about the Kd [5, 26] of the same sequence?
Answer: 316 nM

Question: What about the Kd [6, 26] of the same sequence?
Answer: ≥ 77800 nM

Question: What does the source list for FEEALNVALA?
Answer: Kd [1, 30]: 279 nM; Kd [2, 30]: ≥ 70100 nM; Kd [3, 30]: 99.1 nM; Kd [4, 30]: 5560 nM; Kd [5, 30]: ≥ 70200 nM; Kd [6, 30]: 89.3 nM

Question: For TPPGSVEAF, which Kd [11] is on record?
Answer: 699 nM

Question: How did the Kd ([12]; source organism: Bacillus anthracis str. A0488) turn out when YHHTAINVL was run?
Answer: 6.3 nM

Question: How did the Kd [7] turn out when FGIFTTNIWL was run?
Answer: ≥ 20600 nM

Question: For TYGVCSKAF, which Kd [13] is on record?
Answer: 24.5 nM

Question: Which Kd [14] does the source give for IVIAPAMGM here?
Answer: ≥ 20000 nM

Question: With FHLRSRFAF as the sequence, how does the Kd [8, 31] read?
Answer: 113 nM

Question: And the Kd [15, 31]?
Answer: ≥ 20000 nM

Question: What about the Kd [16, 31] of the same sequence?
Answer: ≥ 20000 nM

Question: What about the Kd [17, 31] of the same sequence?
Answer: ≥ 20000 nM

Question: What about the Kd [18, 31] of the same sequence?
Answer: ≥ 20000 nM

Question: What about the Kd [19] of the same sequence?
Answer: ≥ 20000 nM

Question: And the Kd [20, 31]?
Answer: ≥ 20000 nM

Question: What about the Kd [21, 31] of the same sequence?
Answer: ≥ 20000 nM

Question: What about the Kd [22, 31] of the same sequence?
Answer: ≥ 20000 nM

Question: And the Kd [23, 31]?
Answer: ≥ 20000 nM

Question: And the Kd [24, 31]?
Answer: ≥ 20000 nM

Question: And the Kd [25, 31]?
Answer: ≥ 20000 nM

Question: And the Kd [12, 31]?
Answer: ≤ 1 nM

Question: How did the Kd [1, 26] turn out when REIGFIVPGL was run?
Answer: 0.408 nM

Question: What about the Kd [2, 26] of the same sequence?
Answer: 4.29 nM

Question: And the Kd [3, 26]?
Answer: 8670 nM

Question: What about the Kd [4, 26] of the same sequence?
Answer: 0.132 nM

Question: And the Kd [5, 26]?
Answer: 14.3 nM

Question: And the Kd [6, 26]?
Answer: 103 nM

Question: With ETKGKRRLL as the sequence, how does the Kd [8, 32] read?
Answer: 7470 nM

Question: What about the Kd [15, 33] of the same sequence?
Answer: ≥ 20000 nM

Question: What about the Kd [16, 33] of the same sequence?
Answer: ≥ 20000 nM

Question: And the Kd [17, 33]?
Answer: ≥ 20000 nM

Question: And the Kd [18, 33]?
Answer: ≥ 20000 nM

Question: What about the Kd [20, 33] of the same sequence?
Answer: ≥ 20000 nM

Question: What about the Kd [21, 32] of the same sequence?
Answer: 7120 nM

Question: And the Kd [22, 33]?
Answer: ≥ 20000 nM

Question: And the Kd [23, 33]?
Answer: ≥ 20000 nM

Question: And the Kd [24, 33]?
Answer: ≥ 20000 nM

Question: What about the Kd [10, 33] of the same sequence?
Answer: ≥ 20000 nM

Question: What about the Kd [25, 33] of the same sequence?
Answer: ≥ 20000 nM

Question: Which results are given for REPETTVVL?
Answer: Kd [1, 34]: 92.7 nM; Kd [2, 34]: ≥ 44300 nM; Kd [3, 34]: 7900 nM; Kd [4, 34]: 112 nM; Kd [5, 34]: 18600 nM; Kd [6, 34]: ≥ 74800 nM

Question: What does the source list for GECPKFVFPL?
Answer: Kd [1, 26]: 1.28 nM; Kd [2, 26]: 671 nM; Kd [3, 26]: ≥ 70500 nM; Kd [4, 26]: 2.73 nM; Kd [5, 26]: 952 nM; Kd [6, 26]: 3600 nM
